Values quoted from earlier work in patent US6689582B1, “Polynucleotide molecules encoding proteins having proteinase inhibitor activity” (Bayer Pharmaceuticals Corporation, priority 1999, dated 2004).
Read-outs that look alike come from different tables or passages of the source. Ends that are not written are not given here.

Legend:
plasma kallikrein = plasma kallikrein (Homo sapiens, UniProt P03952)
cathepsin G = target: T1, cathepsin G (Homo sapiens, UniProt P08311)
T1 sequence (P08311 21-255): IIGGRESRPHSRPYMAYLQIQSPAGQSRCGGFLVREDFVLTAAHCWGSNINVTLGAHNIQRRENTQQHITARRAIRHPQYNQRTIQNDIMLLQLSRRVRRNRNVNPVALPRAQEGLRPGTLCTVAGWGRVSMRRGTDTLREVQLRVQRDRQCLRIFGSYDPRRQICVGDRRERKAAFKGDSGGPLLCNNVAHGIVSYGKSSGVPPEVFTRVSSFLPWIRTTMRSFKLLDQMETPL

leukocyte elastase = target: T2, leukocyte elastase (Homo sapiens, UniProt P08246)
T2 sequence (P08246 30-267): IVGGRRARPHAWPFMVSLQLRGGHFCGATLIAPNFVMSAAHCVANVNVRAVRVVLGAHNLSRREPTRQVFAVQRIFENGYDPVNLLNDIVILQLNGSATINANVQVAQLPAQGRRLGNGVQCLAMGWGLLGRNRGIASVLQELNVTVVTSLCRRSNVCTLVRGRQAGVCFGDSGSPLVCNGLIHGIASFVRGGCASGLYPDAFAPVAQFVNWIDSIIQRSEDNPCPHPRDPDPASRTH

thrombin = thrombin (Homo sapiens, UniProt P00734)
proteinase 3 = target: T3, proteinase 3 (Homo sapiens, UniProt P24158)
T3 sequence (P24158 28-256): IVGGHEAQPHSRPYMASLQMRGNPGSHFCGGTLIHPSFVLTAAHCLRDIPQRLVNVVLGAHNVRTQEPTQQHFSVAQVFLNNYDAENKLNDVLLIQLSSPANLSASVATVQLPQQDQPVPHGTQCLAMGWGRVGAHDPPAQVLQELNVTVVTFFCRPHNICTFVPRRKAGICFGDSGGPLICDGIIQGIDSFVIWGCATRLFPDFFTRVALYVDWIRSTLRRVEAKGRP

Chain of plasma kallikrein (P03952 20-638, species assumed): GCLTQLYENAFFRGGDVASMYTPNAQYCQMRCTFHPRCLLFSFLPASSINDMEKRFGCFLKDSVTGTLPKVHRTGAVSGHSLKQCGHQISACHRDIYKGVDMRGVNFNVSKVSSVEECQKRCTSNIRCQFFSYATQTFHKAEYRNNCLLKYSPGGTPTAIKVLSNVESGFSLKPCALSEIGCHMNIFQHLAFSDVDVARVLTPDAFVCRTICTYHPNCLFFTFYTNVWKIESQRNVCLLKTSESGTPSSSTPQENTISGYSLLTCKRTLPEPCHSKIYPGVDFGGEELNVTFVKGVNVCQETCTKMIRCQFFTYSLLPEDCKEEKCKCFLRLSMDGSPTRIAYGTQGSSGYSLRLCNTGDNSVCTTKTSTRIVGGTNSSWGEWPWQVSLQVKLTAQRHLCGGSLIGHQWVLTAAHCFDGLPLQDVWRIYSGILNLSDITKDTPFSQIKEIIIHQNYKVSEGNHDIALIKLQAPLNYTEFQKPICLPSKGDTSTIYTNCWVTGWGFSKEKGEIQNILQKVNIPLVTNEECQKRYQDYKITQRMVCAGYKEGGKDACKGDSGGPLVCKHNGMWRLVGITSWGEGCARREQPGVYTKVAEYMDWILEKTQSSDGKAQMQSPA

APP KD variant (T11D, P13H, M17A, I18H, S19P and F34Y): phage display derived plasma kallikrein inhibitor differing from APP KD at 6 key residues (VREVCSEQAEDGHCRAAHPRWYFDVTEGKCAPFYYGGCGGNRNNFDTEEYCMAVC; ends and bridges not checked; cysteine pairing not given here)
Ki (plasma kallikrein): ~0.015 nM
increase in binding affinity to plasma kallikrein compared to wild-type APP KD (plasma kallikrein): more than 10,000 fold

Alpha-1-proteinase: serpin family serine proteinase inhibitor, major serum inhibitor of elastase and cathepsin G
inhibition of cathepsin G (in words) (cathepsin G): inhibit
inhibition of cathepsin G (in words) (cathepsin G; listed as Alpha 1-proteinase inhibitor): potent inhibitor

alpha 1-proteinase inhibitor [Arg358]: P1 variant of alpha 1-proteinase inhibitor
inhibition of leukocyte elastase (in words) (leukocyte elastase): not
inhibition of thrombin (in words) (thrombin): potent inhibitor

elafin: member of the mucous proteinase inhibitor family (AQEPVKGPVSTKPGSCPIILIRCAMLNPPNRCLKDTDCPGIKKCCEGSCGMACFVPQ; ends and bridges not checked; cysteine pairing not given here; UniProt P19957 61-117, looked up)
inhibition of proteinase 3 (in words) (proteinase 3): not

B1: placental bikunin: human Kunitz family inhibitor, potent inhibitor of plasmin (protein, UniProt O43291 28-252, looked up)
Kunitz-type protease …: ADRERSIHDFCLVSKVVGRCRASMPRWWYNVTDGSCQLFVYGGCDGNSNNYLTKEECLKKCATVTENATGDLATSRNAADSSVPSAPRRQDSEDHSSDMFNYEEYCTANAVTGPCRASFPRWYFDVERNSCNNFIYGGCRGNKNSYRSEEACMLRCFRQQENPPLPLGSKVVVLAGLFVMVLILFLGASMVYLIRVARRNQERALRTVWSSGDDKEQLVKNTYVL
inhibition of leukocyte elastase (in words) (leukocyte elastase): not

B2: Alpha-1-antichymotrypsin: serpin family proteinase inhibitor, physiological cathepsin G inhibitor (protein, UniProt P01011 24-423, looked up)
Alpha-1-antichymotrypsin: HPNSPLDEENLTQENQDRGTHVDLGLASANVDFAFSLYKQLVLKAPDKNVIFSPLSISTALAFLSLGAHNTTLTEILKGLKFNLTETSEAEIHQSFQHLLRTLNQSSDELQLSMGNAMFVKEQLSLLDRFTEDAKRLYGSEAFATDFQDSAAAKKLINDYVKNGTRGKITDLIKDLDSQTMMVLVNYIFFKAKWEMPFDPQDTHQSRFYLSKKKWVMVPMMSLHHLTIPYFRDEELSCTVVELKYTGNASALFILPDQDKMEEVEAMLLPETLKRWRDSLEFREIGELYLPKFSISRDYNLNDILLQLGIEEAFTSKADLSGITGARNLAVSQVVHKAVLDVFEEGTEASAATAVKITLLSALVETRTIVRFNRPFLMIIVPTDTQNIFFMSKVTNPKQA
inhibition of proteinase 3 (in words) (proteinase 3): not

B3: SLPI: member of the mucous proteinase inhibitor family (protein, UniProt P03973 26-132, looked up)
Antileukoproteinase: SGKSFKAGVCPPKKSAQCLRYKKPECQSDWQCPGKKRCCPDTCGIKCLDPVDTPNPTRRKPGKCPVTYGQCLMLNPPNFCEMDGQCKRDLKCCMGMCGKSCVSPVKA
inhibition of proteinase 3 (in words) (proteinase 3): not
